From patent US20230272413A1 (UNITED STATES OF AMERICA AS REPRESENTED BY THE SECRETARY OF …, published 2023)

Molecular target: the molecule itself
Assay: SEC-MALS, homodimer

B1: PLRV ^NRTD (other)
chain: KHERFIAYVGIPMLTIQARENDDQIILGSLGSQRMKYIEDENQNYTNISSEYYSQSSMQAVPMYYFNVPKGQWSVDISCEGYQPTSSTSDPHRGRSDGMIAYSNADSDYWNVGEADGVKISKLRNDNTYRQGHPELEINSCHFREGQLLERDATISFHVEAPTDGRFFLVGPAIQKTAKYNYTISYGDWTDRDMELGLITVVLDEHLEGTGSANRVRRPPREGHIYMAS
notes: Selenomethionine-labeled protein was used for phasing; also called Potato leafroll virus ^NRTD; WT PLRV ^NRTD
Question: Does B1 bind?
Answer: Result: binds
